According to PMC8205236:

Experiments:
[1] = biological target: FZD5-FZD6 chimeric protein (human); test: FRET or BRET; NanoBiT/BRET saturation binding on live HEK293A cells (setup 1): eGFP-WNT-3A conditioned medium 16.7 pM to 16.7 nM, 5% FBS, 10 mM HEPES, 240 min at 37 °C, then LgBiT and furimazine for 10 min; one-site specific model (normalised logarithmic fits for pKd)
[2] = biological target: FZD5-FZD7 chimeric protein (human); test: as above

Chain of eGFP-tagged mouse WNT-3A (P27467 19-352): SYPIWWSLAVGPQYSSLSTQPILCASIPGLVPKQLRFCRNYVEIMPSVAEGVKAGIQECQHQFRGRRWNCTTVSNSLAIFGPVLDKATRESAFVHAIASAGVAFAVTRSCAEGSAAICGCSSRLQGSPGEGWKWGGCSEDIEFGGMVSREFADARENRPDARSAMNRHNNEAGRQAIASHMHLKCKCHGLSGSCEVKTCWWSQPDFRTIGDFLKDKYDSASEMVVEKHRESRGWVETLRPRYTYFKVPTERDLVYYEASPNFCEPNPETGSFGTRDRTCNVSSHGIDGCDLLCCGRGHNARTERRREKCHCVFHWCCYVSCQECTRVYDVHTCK

- Kd [1]: 4.4 nM
- Kd [2]: 5 nM
Substance: eGFP-tagged mouse WNT-3A (from UniProt P27467 19-352) (ligand)
